Among the data in the supplement of paper PMC9732359 are protein stability index values, retold here.

The nature of the data set: protein stability index of a GFP-peptide fusion (yeast GPS) (PSI 1-4); higher = more stable; sorted into four equal gates, so the index is relative within each strain. The essentials:
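Tiled 17-residue peptides from yeast proteins were fused downstream of GFP on a plasmid that also expresses Cherry, and the pooled library was carried in yeast. Mid-log cultures grown in leucine-free medium were sorted into four equal gates by GFP/Cherry fluorescence ratio. Plasmids from each gate were PCR-amplified and Illumina-sequenced, and reads were assigned to strains by barcodes. Each peptide's protein stability index is the sum, over gates, of the gate's read frequency multiplied by its gate number.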

± gives the uncertainty stated by the source.

KILAGLHDTQIEGKLHM [RPN10] had a protein stability index (doa10∆) of 3.31 ± 0.18, a protein stability index (pdr5∆) of 3.46 ± 0.18 and a protein stability index (ubr1∆) of 2.98 ± 0.22.
Regarding ELQKLVHDLNKYKSNTN [SMC2], the protein stability index (doa10∆) is 3.15 ± 0.072, the protein stability index (pdr5∆) came to 3.31 ± 0.071, the protein stability index (san1∆) stood at 3.41 ± 0.047 and the protein stability index (ubr1∆) amounted to 3.32 ± 0.06.
On the same counts, the results for LIVIDVVEGVTFVVEQL [SNU114] are 1.57 ± 0.044, 1.92 ± 0.061, 2.56 ± 0.082 and 2.92 ± 0.04.
As to WQYIVIDEAHRIKNEQS [ISW2], the protein stability index was 1.48 ± 0.075 (doa10∆), 1.64 ± 0.08 (pdr5∆), 1.23 ± 0.11 (san1∆) and 2.24 ± 0.071 (ubr1∆).
KLTVCFDDILKVGAEMM [MED2]: the protein stability index reads like this: (doa10∆) 1.97 ± 0.07; (pdr5∆) 1.95 ± 0.06; (san1∆) 1.89 ± 0.11; (ubr1∆) 2 ± 0.041.
In the case of KTYNCLHEKYLTEGGSI [SMC1], the protein stability index turned out to be 3.03 ± 0.14 (doa10∆), 3.05 ± 0.072 (pdr5∆), 2.52 ± 0.076 (san1∆) and 2.98 ± 0.069 (ubr1∆).
On the same counts, the results for LASKIKQYERLRFYKDT [RRI1] are 2.63 ± 0.068, 2.52 ± 0.062, 1.97 ± 0.077 and 2.19 ± 0.08.
Take SDDIISQVDPITLFVLV [FAS2]: the protein stability index by setting is: (doa10∆) 1.19 ± 0.045; (pdr5∆) 1.38 ± 0.068; (san1∆) 1.33 ± 0.17; (ubr1∆) 1.23 ± 0.064.
On to KTSKDIAVLRSKEWFQL [FAS1], for which the protein stability index is 2.01 ± 0.033 (doa10∆), 2.07 ± 0.031 (pdr5∆), 1.91 ± 0.046 (san1∆) and 2.25 ± 0.032 (ubr1∆).
On to GFETSKNIKIIMATNRL [RPT6], for which the protein stability index reads like this: (doa10∆) 2.87 ± 0.15; (pdr5∆) 2.54 ± 0.084; (san1∆) 2.36 ± 0.066; (ubr1∆) 3.28 ± 0.063.
Regarding NFLIKLSELSPGIMLRQ [YCS4], the protein stability index (doa10∆) turned out to be 2.77 ± 0.093, the protein stability index (pdr5∆) was determined as 2.98 ± 0.1, the protein stability index (san1∆) turned out to be 3.1 ± 0.094 and the protein stability index (ubr1∆) was found to be 2.95 ± 0.093.
On to DIFGANAASGSNSNVTN [YOR098C/NUP1], for which the protein stability index by setting is: (doa10∆) 2.11 ± 0.064; (pdr5∆) 1.65 ± 0.054; (san1∆) 1.64 ± 0.11; (ubr1∆) 2.63 ± 0.079.
On the same counts, the results for LVTKILPLKKNEIIGDR [YCG1] are 2.88 ± 0.22, 2.9 ± 0.18, 2.6 ± 0.24 and 2.83 ± 0.27.
ITHQGANSESGHYQAFI [UBP6] showed a protein stability index (doa10∆) of 3.04 ± 0.19, a protein stability index (pdr5∆) of 2.95 ± 0.08, a protein stability index (san1∆) of 3.16 ± 0.071 and a protein stability index (ubr1∆) of 3.05 ± 0.079.
On to IEEKLSSFSKKTLTEEV [YIL149C/MLP2], for which the protein stability index by setting is: (doa10∆) 2.92 ± 0.054; (pdr5∆) 3.07 ± 0.052; (san1∆) 3.03 ± 0.052; (ubr1∆) 3 ± 0.048.
On to HAKRKTVTSLDVVYALK [HHF1], for which the protein stability index stood at 3.54 ± 0.18 (doa10∆), 3.57 ± 0.14 (pdr5∆), 3.19 ± 0.084 (san1∆) and 3.12 ± 0.12 (ubr1∆).
For the sequence MINRLLLCALDRKDQDD [RPB2], the protein stability index came out at 1.86 ± 0.16 (doa10∆), 3.11 ± 0.1 (pdr5∆), 2.11 ± 0.17 (san1∆) and 2.97 ± 0.067 (ubr1∆).
On to VGSPLTVSILQESSSLR [POP8], for which the protein stability index came to 3.21 ± 0.078 (doa10∆), 3.01 ± 0.057 (pdr5∆), 3.01 ± 0.063 (san1∆) and 3.1 ± 0.042 (ubr1∆).
Turning to IISRLNADFQKPWFATV [FAS1], the protein stability index (doa10∆) was 2.27 ± 0.066, the protein stability index (pdr5∆) is 2.4 ± 0.063, the protein stability index (san1∆) was 2.1 ± 0.071 and the protein stability index (ubr1∆) is 2.96 ± 0.069.
For PEDPYFNTLVRIMSTRC [DIS3], the protein stability index is, setting by setting: (doa10∆) 2.38 ± 0.093; (pdr5∆) 2.72 ± 0.072; (san1∆) 2.56 ± 0.052; (ubr1∆) 1.92 ± 0.049.
EREIKRRKFDPSSSENV [UBP6]: the protein stability index (doa10∆) turned out to be 3.51 ± 0.078, the protein stability index (pdr5∆) was 3.37 ± 0.071, the protein stability index (san1∆) stood at 3.14 ± 0.065 and the protein stability index (ubr1∆) was determined as 3.33 ± 0.13.
For TPATIVKKPTFTFGQST [YOR098C/NUP1] the same measures were 2.84 ± 0.066, 3.13 ± 0.074, 3.09 ± 0.058 and 3.43 ± 0.075.
Consider MDTSDDAFVATAFATEF [DLS1], for which the protein stability index (doa10∆) came out at 2.82 ± 0.07, the protein stability index (pdr5∆) is 3.08 ± 0.09, the protein stability index (san1∆) worked out at 2.75 ± 0.081 and the protein stability index (ubr1∆) is 2.8 ± 0.044.
Turning to EYWAQRKKKFVLDVDPK [ISW2], the protein stability index is 3.08 ± 0.094 (doa10∆), 2.48 ± 0.26 (pdr5∆), 3.03 ± 0.21 (san1∆) and 3.28 ± 0.21 (ubr1∆).
For DPDLGLDLMFDEVYVQN [YJL039C/NUP192] the same measures were 3.06 ± 0.13, 3.04 ± 0.11, 2.93 ± 0.11 and 2.85 ± 0.038.
